The text below walks through data of US20060234940.

Some targets named below: [Gly]^2-glucagon (UniProt P01275); Glucagon (UniProt P01275); His^1-Ser^2-NPY (UniProt P01303).
The test system of series [1] is peptides of the growth hormone releasing factor (GRF) family.

Sequence of Glucagon (P01275 53-81): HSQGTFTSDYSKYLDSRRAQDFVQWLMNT
Sequence of [Gly]^2-glucagon (P01275 whole entry, looked up): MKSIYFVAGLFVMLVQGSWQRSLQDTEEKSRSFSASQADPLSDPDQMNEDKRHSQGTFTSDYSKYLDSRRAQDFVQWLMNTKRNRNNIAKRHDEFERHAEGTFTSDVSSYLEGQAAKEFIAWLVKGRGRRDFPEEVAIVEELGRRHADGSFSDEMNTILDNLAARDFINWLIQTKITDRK

As for DP IV, the Km [M] of DP IV-catalyzed hydrolysis in series [Gly]^2-glucagon came to 2.2e-05 M; in the series with Glucagon, 3.8e-06 M; with His^1-Ser^2-NPY, 6.8e-05 M.
For recombinant human DP IV, wild type, the “hydrolysis (MALDI-TOF MS, capillary zone electrophoresis)” value in series [1] is reported as “All peptides were hydrolyzed by porcine DP IV, recombinant human DP IV or DP IV activity of the human serum”.
